The target in this test is recombinant human NPR3 protein, extracellular domain amino acids Gly27-Ser482 fused to the Fc portion of mouse IgG2a at the NPR3 C-terminus (human; mouse) (UniProt P17342). The experiment in a line: ELISA-based blocking assay on coated hNPR3-mFc, competitor biotin-hANP 200 pM; categorized as a non-blocker. For orientation: In an ELISA, binding on a coated surface is turned into a signal by an enzyme label.
UniProt P17342, sequence (P17342 27-482 limits assumed): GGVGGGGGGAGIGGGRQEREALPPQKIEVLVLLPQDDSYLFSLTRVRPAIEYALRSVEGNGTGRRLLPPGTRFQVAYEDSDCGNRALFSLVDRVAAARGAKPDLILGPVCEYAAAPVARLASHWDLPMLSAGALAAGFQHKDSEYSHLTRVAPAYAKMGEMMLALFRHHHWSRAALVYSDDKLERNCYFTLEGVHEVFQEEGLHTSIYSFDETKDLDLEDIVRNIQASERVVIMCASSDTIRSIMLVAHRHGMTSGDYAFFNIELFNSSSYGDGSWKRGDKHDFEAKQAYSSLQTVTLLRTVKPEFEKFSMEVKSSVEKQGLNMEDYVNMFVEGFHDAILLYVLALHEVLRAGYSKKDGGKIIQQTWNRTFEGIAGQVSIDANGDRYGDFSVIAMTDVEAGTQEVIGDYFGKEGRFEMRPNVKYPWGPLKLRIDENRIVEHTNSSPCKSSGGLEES

With “non-binding human IgG1 isotype control antibody (ELISA blocking assay)”, the percent blockade turned out to be 32%.

The record behind these values is patent publication US20240317849A1.
